Patent US20210332339A1

How the values were obtained:
[1] = biological target: RRR-type mutant ZFA36-FokI-ND (ZFA36 zinc finger array, TGAAARA linker, FokI nuclease domain D483R/H537R) (UniProt P14870); assay: cell-based or functional assay
[2] = biological target: RRR-type mutant ZFA36-ND1 (ZFA36 zinc finger array, TGAAARA linker, ND1 D489R/N543R) (Bacillus SGD-V-76); assay: cell-based or functional assay

RRR-type mutant ZFA36-FokI-ND (ZFA36 zinc finger array, TGAAARA linker, FokI nuclease domain D483R/H537R), sequence (P14870 other isoform, or with tags, fused parts or gaps D483R H537R D483R H537R): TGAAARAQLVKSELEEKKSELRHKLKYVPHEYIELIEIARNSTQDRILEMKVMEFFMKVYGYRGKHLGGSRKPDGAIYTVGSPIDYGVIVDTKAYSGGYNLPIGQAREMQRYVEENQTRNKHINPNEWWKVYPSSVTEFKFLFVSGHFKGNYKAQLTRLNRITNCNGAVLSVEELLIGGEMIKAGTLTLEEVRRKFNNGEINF

## DDD-type mutant ZFL1-FokI-ND (hPGRN_ZFL1 zinc finger array, TGAAARA linker, FokI nuclease domain R487D/N496D) (from UniProt P14870 384-579) (enzyme)
[1]
  cleavage activity of the target sequence (ZFL1-ZFA36) on the reporter, SSA reporter assay, relative to ZFA36-FokI: 60%
[2]
  cleavage activity of the reporter, SSA reporter assay, relative to the FokI-ND homodimer type: 60%

## DDD-type mutant ZFL1-ND1 (hPGRN_ZFL1 zinc finger array, TGAAARA linker, ND1 R493D/N502D) (enzyme)
[1]
  cleavage activity of the reporter, SSA reporter assay: 80%
[2]
  cleavage activity of the target sequence (ZFL1-ZFA36) on the reporter, SSA reporter assay, relative to ZFA36-FokI: 1.6 times
